What was measured:
Human alpha-synuclein = Human alpha-synuclein (human, UniProt P37840 1-140); experiment: SPR (BIAcore 3000), antibody captured by goat anti-human IgG, human alpha-synuclein 3.125-100 nM as analyte
Source text: Goat anti-human IgG was immobilized on the CM5 chip. […] The sensor surface was regenerated between each cycle.

Mouse alpha-synuclein = Mouse alpha-synuclein (mouse, UniProt O55042 1-140); experiment: Fortebio Octetred

B1: Comparator antibody 9E4 (antibody, human IgG1, kappa, V domains shown)
VH: EVQLVESGGGLVQPGGSLRLSCAASGFTFSNYGMSWVRQAPGKGLEWVASISSGGGSTYYPDNVKGRFTISRDNAKNSLYLQMNSLRAEDTAVYYCARGGAGIDYWGQGTLVTVSS
VL: DIQMTQSPSSLSASVGDRVTITCKSIQTLLYSSNQKNYLAWFQQKPGKAPKLLIYWASIRKSGVPSRFSGSGSGTDFTLTISSLQPEDLATYYCQQYYSYPLTFGGGTKLEIKR
notes: also called h9E4; human 9E4
binding result (Human alpha-synuclein): binds

B2: GM37 (antibody, human IgG1, kappa, V domains shown)
VH: EVQLLESGGGLVQTGGSLRLSCAASGFTFSSYAMTWVRQAPGKGLEWVSAIRSNGDRTDYADSVKGRFTISRDNSQNTLYLQMNSLRAEDTAVYYCAKNWAPFDSWGQGTLVTVSS
VL: not shown
notes: also called GM37 wild type (wt); GM37wt
binding result (Mouse alpha-synuclein): binds

B3: GM285 (antibody, human IgG1, kappa, V domains shown)
VH: EVQLLESGGGLVQPGGSLRLSCAASGFTFSRFTMTWVRQAPGKGLEWVSAISGSGGGTSYADSVKGRLTVSRDNSKNTLYLQMNSLRAEDTAVYYCAKNWAPFDYWGQGTLVTVSS
VL: not shown
notes: also called mab285
binding result (Mouse alpha-synuclein): binds

From patent publication US20180194833A1 (H LUNDBECK A S, published 2018)
